Assay results taken from patent publication US6955900B1, “Methods for producing polypeptide binding sites, monoclonal antibodies and compositions thereof” (The Scripps Research Institute, priority 1993, dated 2005).
Read-outs that look alike come from different tables or passages of the source. Bridge positions count the residues as written; N and C are the ends. Ends that are not written are not given here.

Tests used:
platelets = assay: platelet aggregation assay; format: cell-based, human
Description: Platelet aggregation assays were performed as described in U.S. Pat. No. 5,114,842. […] When the concentration of the RGDC2-binding site Fab was decreased by half, the amount of platelet aggregation increased similarly and thus the amount of light transmitted increased. […] All of the initial selection and characterization of the semi-synthetic Fab antibodies of this invention relied largely upon the use of purified integrins. Since the MTF-antibodies blocked the function of αIIbβ3 and have potential therapeutic use in the prevention of thrombosis, the ability of recombinant Fabs to block platelet aggregation was measured as described in Example 4. Washed platelets (1×10^8) were placed in Tyrode's buffer containing 2 mM Ca^2+ and 100 ug/ml of fibrinogen and aggregation was stimulated by addition of 20 uM ADP. Aggregation was measured as light transmission through the platelet suspension using a Scienceo aggregometer.

gpIIb/IIIa [1] = target: T1, gpIIb/IIIa (Homo sapiens, UniProt P05106+P08514); assay: ELISA on gpIIb/IIIa-coated surfaces; format: binding; conditions: result in words
T1 construct: from tissue; the procedure itself is in U.S. Pat. No. 5,114,842

αvβ3 [2] = target: T2, αvβ3 (Homo sapiens, UniProt P05106+P06756); assay: ELISA on αv/β3-coated wells; format: binding; conditions: result in words, compared to BSA background
T2 construct: human placentas were obtained, cut into small pieces and extracted; from tissue
T2 sequence (P06756 31-889 limits assumed): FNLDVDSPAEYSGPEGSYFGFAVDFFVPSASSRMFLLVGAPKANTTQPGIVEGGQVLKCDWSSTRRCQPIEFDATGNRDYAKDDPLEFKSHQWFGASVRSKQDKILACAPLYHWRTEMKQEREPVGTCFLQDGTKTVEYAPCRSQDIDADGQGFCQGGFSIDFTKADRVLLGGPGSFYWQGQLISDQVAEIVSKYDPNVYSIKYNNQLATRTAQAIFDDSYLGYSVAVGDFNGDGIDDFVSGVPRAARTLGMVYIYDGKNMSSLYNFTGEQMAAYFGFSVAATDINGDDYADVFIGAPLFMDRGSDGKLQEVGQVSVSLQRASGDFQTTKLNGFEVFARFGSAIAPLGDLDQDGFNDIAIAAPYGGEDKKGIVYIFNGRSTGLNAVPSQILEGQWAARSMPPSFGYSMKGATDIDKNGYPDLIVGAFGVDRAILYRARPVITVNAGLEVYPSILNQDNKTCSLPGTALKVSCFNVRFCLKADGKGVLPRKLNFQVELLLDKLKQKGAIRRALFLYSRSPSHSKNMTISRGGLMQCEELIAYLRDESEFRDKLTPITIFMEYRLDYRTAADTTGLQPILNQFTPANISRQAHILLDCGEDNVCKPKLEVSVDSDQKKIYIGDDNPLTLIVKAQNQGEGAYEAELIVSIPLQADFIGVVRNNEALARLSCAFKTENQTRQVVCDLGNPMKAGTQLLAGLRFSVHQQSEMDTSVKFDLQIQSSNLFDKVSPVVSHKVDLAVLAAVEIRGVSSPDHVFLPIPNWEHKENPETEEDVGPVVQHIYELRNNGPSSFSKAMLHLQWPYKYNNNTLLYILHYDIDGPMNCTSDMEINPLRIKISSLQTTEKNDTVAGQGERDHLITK
T2 sequence (P06756 891-1048 partner limits assumed): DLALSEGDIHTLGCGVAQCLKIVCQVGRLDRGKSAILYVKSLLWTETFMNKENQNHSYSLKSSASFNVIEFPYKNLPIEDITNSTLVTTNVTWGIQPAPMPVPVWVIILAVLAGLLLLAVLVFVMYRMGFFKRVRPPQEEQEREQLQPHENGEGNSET
T2 sequence (P05106 27-788): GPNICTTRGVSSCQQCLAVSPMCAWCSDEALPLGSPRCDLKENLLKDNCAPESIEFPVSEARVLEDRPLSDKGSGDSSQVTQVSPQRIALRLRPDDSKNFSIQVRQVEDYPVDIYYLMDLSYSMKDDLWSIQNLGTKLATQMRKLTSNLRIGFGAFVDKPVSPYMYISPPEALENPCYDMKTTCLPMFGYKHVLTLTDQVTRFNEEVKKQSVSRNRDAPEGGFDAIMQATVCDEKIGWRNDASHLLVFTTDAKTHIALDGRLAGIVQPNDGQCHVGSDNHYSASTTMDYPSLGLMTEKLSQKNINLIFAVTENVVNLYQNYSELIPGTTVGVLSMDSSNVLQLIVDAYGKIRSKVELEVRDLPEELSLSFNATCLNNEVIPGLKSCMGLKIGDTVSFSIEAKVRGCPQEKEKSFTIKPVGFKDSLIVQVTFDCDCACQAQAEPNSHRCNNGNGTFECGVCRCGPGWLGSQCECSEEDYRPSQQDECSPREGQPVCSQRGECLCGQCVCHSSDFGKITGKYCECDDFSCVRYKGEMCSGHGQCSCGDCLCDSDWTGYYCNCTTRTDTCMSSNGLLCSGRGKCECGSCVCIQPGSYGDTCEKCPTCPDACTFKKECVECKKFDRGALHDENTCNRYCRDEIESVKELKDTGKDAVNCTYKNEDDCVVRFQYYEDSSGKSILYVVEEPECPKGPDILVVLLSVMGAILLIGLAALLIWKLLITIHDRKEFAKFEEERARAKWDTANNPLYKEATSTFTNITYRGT
Description: (§1) Preliminary ELISA assays were performed to first characterize the binding specificity of the panned phage monoclonal antibodies prepared above toward related integrins. For ELISA, 1 ug/well of the purified VNRs prepared in Example 3A was separately admixed to individual wells of a microtiter plate and maintained at 4 C overnight to allow the protein solution to adhere to the walls of the well. After the maintenance period, the wells were washed once with PBS and thereafter maintained with a solution of 3% BSA to block nonspecific sites on the wells. The plates were maintained at 37 C for 1 hour after which time the plates were inverted and shaked to remove the BSA solution. Soluble Fab heterodimers expressing the synthetic binding site proteins-prepared in Example 3B were then admixed separately to each well and maintained at 37 C for 1 hour to form a immunoreaction products. Following the maintenance period, the wells were washed 10 times with PBS to remove unbound soluble antibody and then maintained with a secondary goat anti-human FAB conjugated to alkaline phosphatase diluted in PBS containing 1% BSA. The wells were maintained at 37 C for 1 hour after which the wells were washed 10 times with PBS followed by development with p-nitrophenyl phosphate.

αvβ5 [3] = target: T3, αvβ5 (Homo sapiens, UniProt P06756+P18084); assay: ELISA on αv/β5-coated wells; format: binding; conditions: result in words, compared to BSA background
T3 construct: human placentas were obtained, cut into small pieces and extracted; from tissue
T3 sequence (P06756 31-889 limits assumed): as the sequence (P06756 31-889 limits assumed) above
T3 sequence (P06756 891-1048 partner limits assumed): as the sequence (P06756 891-1048 partner limits assumed) above
T3 sequence (P18084 24-799): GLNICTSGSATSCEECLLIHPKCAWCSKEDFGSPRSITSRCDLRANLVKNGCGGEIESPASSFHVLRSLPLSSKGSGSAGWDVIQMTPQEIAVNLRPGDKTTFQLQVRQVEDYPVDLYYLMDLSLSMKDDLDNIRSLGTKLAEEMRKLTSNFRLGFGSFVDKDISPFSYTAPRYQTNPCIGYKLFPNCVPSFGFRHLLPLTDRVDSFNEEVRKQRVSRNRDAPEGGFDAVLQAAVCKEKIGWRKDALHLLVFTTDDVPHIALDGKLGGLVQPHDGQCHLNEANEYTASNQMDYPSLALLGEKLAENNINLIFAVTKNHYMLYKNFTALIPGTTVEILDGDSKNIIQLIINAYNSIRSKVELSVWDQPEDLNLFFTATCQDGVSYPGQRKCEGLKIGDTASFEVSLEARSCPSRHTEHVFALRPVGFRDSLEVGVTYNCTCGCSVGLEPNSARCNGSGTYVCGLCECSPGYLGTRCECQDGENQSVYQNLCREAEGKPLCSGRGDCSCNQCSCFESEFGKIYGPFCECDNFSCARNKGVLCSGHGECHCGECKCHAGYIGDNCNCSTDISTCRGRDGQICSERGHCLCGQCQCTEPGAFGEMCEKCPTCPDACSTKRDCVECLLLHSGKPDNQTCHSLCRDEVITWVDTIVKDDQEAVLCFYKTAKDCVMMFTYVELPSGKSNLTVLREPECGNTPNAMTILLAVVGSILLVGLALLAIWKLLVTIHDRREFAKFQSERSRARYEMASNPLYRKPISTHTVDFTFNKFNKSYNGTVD
Description: as §1

gpIIb/IIIa [4] = target: T1, gpIIb/IIIa; assay: gpIIb/IIIa sandwich ELISA on fibrinogen-coated plates; format: binding
Description: A gpIIb/IIIa sandwich ELISA assay was performed on 10 ug/ml (100 ul) of fibrinogen-coated plates. After blocking the plate as described above, the RGD-expressing, Fab, Mab 19, was admixed with purified gpIIb/IIIa receptor. After allowing the RGD-expressing Fab and receptor admixture to immunoreact with the fibrinogen, the wells were washed and the amount of bound gpIIb/IIIa was determined using an anti-IIIa antibody.

αIIbβ3 [5] = target: T4, αIIbβ3 (Homo sapiens, UniProt P05106+P08514); assay: purified ligand-receptor binding assay, inhibition of 125I-fibrinogen binding to αIIbβ3; parameters: from tissue; the procedure itself is in U.S. Pat. No. 5,114,842; conditions: for blocking of fibrinogen (ligand) binding to gpIIb/IIIa (αIIbβ3): result in words
Description: (§2) The method for these binding studies has been described by Barbas et al., Proc. Natl. Acad. Sci., USA, 90:10003-10007 (1993) and Smith et al., J. Biol. Chem., 265:11008-11013 (1990), the disclosures of which are hereby incorporated by reference.
(§3) Briefly, selected purified integrins were separately immobilized in Titertek microtiter wells at a coating concentration of 50 ng per well. After incubation for 18 hr at 4° C., non-specific binding sites on the plate were blocked with 10 mg/ml of bovine serum albumin in Tris-buffered saline. For inhibition studies, a range of antibody was tested for the ability to block the binding of ^125I-vitronectin to αvβ3 and ^125I-fibrinogen to αIIbβ3. The choice to use two different ligands in comparing the inhibitory activity of antibodies was a compromise based on a complicated series of circumstances. […] In contrast, Ca^2+ is essential for the rapid binding of fibrinogen to αIIbβ3. […] Therefore, the optimal ligand was selected for each integrin. This corresponds to vitronectin for αvβ3 and fibrinogen for αIIbβ3. Radiolabeled ligands were used at concentrations of 1 nM and binding was challenged with unlabeled antibody.
(§4) Following a three hour incubation free ligand was removed by washing and bound ligand was detected by gamma counting. The data from this analysis were highly reproducible with the error between data points typically below 11%. Data are expressed as the average of triplicate data points. All experiments were repeated at least four times.

αvβ3 [6] = target: T2, αvβ3; assay: purified ligand-receptor binding assay, inhibition of 125I-vitronectin binding to αvβ3; conditions: for blocking of vitronectin (ligand) binding to αvβ3: result in words
Description: as §2, §3, §4

αvβ5 [7] = target: T3, αvβ5; assay: purified ligand-receptor binding assay, inhibition of 125I-vitronectin binding to αvβ5; conditions: result in words
Description: To determine if the CDR was an appropriate vehicle for displaying and identifying inhibitory peptide motifs, the ability of synthetic peptides derived from the sequence of Fab 9 to block ligand binding to αvβ3, αvβ5 and αIIbβ3 was measured. One peptide synthesized as described below for use in this assay contained a RGD motif positioned on the apex of the CDR3 loop but lacked the remaining flanking regions of the CDR3 and rest of the heavy chain. The sequence of the peptide is listed in SEQ ID NO 12. A peptide having the same sequence but flanked by glycine residues to prevent cyclization was also prepared and has the amino acid residue sequence in SEQ ID NO 68. A longer peptide, having the amino acid residue sequence in SEQ ID NO 4 containing all of the amino acids in SEQ ID NO 12 along with flanking amino acid residues, was also prepared. These assays were performed in order to assess the ability of this particular peptide to inhibit the binding of a high affinity ligand to a receptor, namely the binding of vitronectin to αv/β3 or αv/β5 and fibrinogen to gpIIb/IIIa.
The synthetic peptides from Fab 9 were tested for the ability to antagonize αvβ3 and αIIbβ3 and αvβ5 in purified ligand-receptor binding assays performed as described in Example 5b. […]

αIIbβ3 [8] = target: T4, αIIbβ3; conditions: solid-phase radioligand binding assays, recently reported; cited from earlier work
αIIbβ3 [9] = target: T4, αIIbβ3; assay: surface plasmon resonance (BIAcore), Fab binding to immobilized αIIbβ3; parameters: from tissue; the procedure itself is in U.S. Pat. No. 5,114,842; conditions: using SPR
Description: A comparison of absolute antibody affinities was then performed with surface plasmon resonance, which is a highly accurate means of assessing ligand affinities in real time. See, Altshuh et al., Biochem., 31:6298-6304 (1992); Chaiken et al., Anal. Biochem., 201:197-210 (1992); Eddowes, Biosensors, 3:1-15 (1987); Fagerstam et al., J. Chromatoar., 597:397-410 (1992); Johnsson et al., Anal. Biochem., 198:268-277 (1991); Karlsson et al., J. Immunol. Methods, 145:229-240 (1991); and VanCott et al., J. Immunol. Methods, 146:163-176 (1992), the disclosures of which are hereby incorporated by reference. SPR is a phenomena that occurs when incoming photons interact with electrons in a biosensor chip. […]
The association and dissociation rate constants (k1 and k−1) for semi-synthetic antibodies were obtained from BIAcore measurements as follows. […] At the end of the association phase the flow was changed to buffer without ligand and the change in response unit (RU) was measured as a function of time. […]
To obtain the association rate constant k1, an antibody was passed through the sensor chip containing unoccupied integrin and the response unit as a result of binding is again measured as a function of time. The association rate constant, k1, is calculated as shown in equation 2. k1=[((dRU/dt)/RU)−k−1]/L Equation 2 L is the concentration of ligand. […]

[10] = listed as Fab 9-derived peptide in SEQ ID NO 68

For “Mab 19: Fab-displayed RGDC2 binding site VGCGRLRGDDPWCYYMDV (SEQ ID NO 3) (Fab-displayed binding site)”, which “inhibition of platelet aggregation” value (platelets; 6.6 uM purified soluble Fab, light transmission) is on record?
The value was “inhibited the aggregation of platelets in a time-dependent manner”.

What about the “inhibition of platelet aggregation compared with murine Fab LIBS-1” value (platelets; simultaneously performed assays) of the same substance?
The value was “equally effective”.

What about the “binding to gpIIb/IIIa (ELISA, immunoreaction)” value (gpIIb/IIIa [1]) of the same substance?
The value was “specific for gpIIb/IIIa”.

What about the “binding to αv/β3 (ELISA, immunoreaction)” value (αvβ3 [2]) of the same substance?
Its value is “not cross-react”.

What about the “binding to αv/β5 (ELISA, immunoreaction)” value (αvβ5 [3]) of the same substance?
Its value is “not cross-react”.

And the “Fab concentration of maximal inhibition of gpIIb/IIIa binding to fibrinogen” value (gpIIb/IIIa [4])?
The value was 5 µM.

What about the “blocking of gpIIb/IIIa binding to fibrinogen” value (gpIIb/IIIa [4]; result in words) of the same substance?
Its value is “blocked the binding of gpIIb/IIIa to fibrinogen in a dose-dependent manner”.

With “Mab 8: Fab-displayed RGDC2 binding site VGCPIPRGDWRECYYMDV (SEQ ID NO 8) (Fab-displayed binding site)” as the substance, how does the “binding to αv/β3 (ELISA, immunoreaction)” value (αvβ3 [2]) read?
Its value is “bound specifically”.

What about the “binding to αv/β5 (ELISA, immunoreaction)” value (αvβ5 [3]) of the same substance?
The value was “not to αv/β5”.

Which results are given for “peptides derived from HCDR3 of MTF-32: circular CSFGRTDQRNC (SEQ ID NO 71), linear GCSFGRTDQRNCY (SEQ ID NO 72) [peptide 32]”?
blocking of fibrinogen (ligand) binding to gpIIb/IIIa (αIIbβ3) (αIIbβ3 [5]): blocked; blocking of vitronectin (ligand) binding to αvβ3 (αvβ3 [6]): did not interfere

What does the source list for GSFGRGDIRNG [Lin-9]?
blocking of vitronectin binding to αvβ5 (αvβ5 [7]): did not antagonize; blocking of vitronectin binding to αvβ5 (αvβ5 [7]; [10]): No inhibition; peptide concentration reaching maximal inhibition of binding to gpIIb/IIIa (αIIbβ3 [5]): 10^−5 M; blocking of fibrinogen (ligand) binding to gpIIb/IIIa (αIIbβ3) (αIIbβ3 [5]): inhibited; blocking of fibrinogen (ligand) binding to gpIIb/IIIa (αIIbβ3) (αIIbβ3 [5]; [10]): completely inhibited; peptide concentration reaching maximal inhibition of binding to αv/β3 (αvβ3 [6]): 10^−5 M; blocking of vitronectin (ligand) binding to αvβ3 (αvβ3 [6]): inhibited; blocking of vitronectin (ligand) binding to αvβ3 (αvβ3 [6]; [10]): completely inhibited

With “peptides derived from HCDR3 of MTF-40: circular CSFGRNDSRNC (SEQ ID NO 69), linear GCSFGRNDSRNCY (SEQ ID NO 70) [peptide 40]” as the substance, how does the “blocking of fibrinogen (ligand) binding to gpIIb/IIIa (αIIbβ3)” value (αIIbβ3 [5]) read?
The value was “blocked”.

And the “blocking of vitronectin (ligand) binding to αvβ3” value (αvβ3 [6])?
Its value is “did not interfere”.

Which “blocking of vitronectin (ligand) binding to αvβ3” value (αvβ3 [6]; listed as VnRB3-5-derived peptide) does the source give for “CSFGRGDIRNC (CSFGRGDIRNC-NH2; disulfide 1-11 (inferred); not fully specified) [circularized Fab 9-derived peptide]” here?
The value was “inhibits”.

Which results are given for “fibrinogen: natural high affinity ligand of αIIbβ3”?
association rate constant for binding to αIIbβ3 (αIIbβ3 [8]): 850000 M⁻¹ s⁻¹; association rate constant for binding to αIIbβ3 (αIIbβ3 [9]): 600000 M⁻¹ s⁻¹
